In IntAct's records for PubMed 24152121:

Assays:
[1] = molecular target: vps29_mouse Vps29 (UniProt Q9QZ88)
[2] = molecular target: vp26a_mouse Vps26a (UniProt P40336)

effect of a mutation on the interaction [1]: with no effect
effect of a mutation on the interaction [2]: with no effect
Substance: Vacuolar protein sorting-associated protein 35 (Homo sapiens) (from UniProt Q96QK1) D620N
